Experimental findings from publication PMC5268438, “Crystal Structure and Functional Characterization of an Esterase (EaEST) from Exiguobacterium antarcticum” (PLoS ONE, 2017) are described below.

Experiment [1] concerns the target esterase (EaEST) from Exiguobacterium antarcticum B7 (Exiguobacterium antarcticum B7). The experiment in a line: AUC; sedimentation velocity, 20°C, 2 mg/ml EaEST in 25 mM Tris-HCl pH 8.0, 200 mM NaCl, 5 mM MgCl2, 2 mM DTT; 45,000 rpm; c(s) with SEDFIT.
For experiment [2], the target named is T1, EaEST (Exiguobacterium antarcticum, UniProt A0ABF7PFX0).
T1 construct: gene Eab7_1456; recombinant from pET-21a in E. coli BL21(DE3), purified on His-Trap Ni-NTA, no tag removal told; two protomers in the asymmetric unit (542 residues modelled); catalytic triad Ser96, Asp220, His248
T1 sequence (A0ABF7PFX0 1-272): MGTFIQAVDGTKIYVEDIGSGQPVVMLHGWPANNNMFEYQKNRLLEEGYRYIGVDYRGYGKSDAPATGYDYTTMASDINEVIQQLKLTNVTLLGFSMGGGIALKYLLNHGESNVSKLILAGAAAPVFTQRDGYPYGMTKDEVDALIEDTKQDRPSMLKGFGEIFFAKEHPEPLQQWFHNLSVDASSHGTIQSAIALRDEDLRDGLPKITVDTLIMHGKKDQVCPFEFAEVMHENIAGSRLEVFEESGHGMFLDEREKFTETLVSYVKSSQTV
The experiment can be described thus: X-ray crystal structure, […] Å. Type of experiment: binding. Particulars: crystals from 0.2 M ammonium acetate, pH 7.5, no ligand added; active site, ligand assigned from electron density.

In experiment [1], “esterase (EaEST) from Exiguobacterium antarcticum B7 (enzyme)” came in with a stoichiometry N of 3.
Consider `CC(=O)OO` [peracetate], for which, in experiment [2], the “X-ray crystal structure, 1.90 Å” value is “the peracetate molecule was perfectly fitted into the electron-density map”.
